These results are taken from paper PMC8671107 (Frontiers in Molecular Biosciences, 2021).

No end group written: not given here.

For experiment [1], the target named is muscle-type nicotinic acetylcholine receptor from Torpedo californica electric organ (Torpedo californica (endogenous in electric organ)). Nature of the experiment: radioligand binding.
Experiment [2] concerns the target neuronal human α7 nicotinic acetylcholine receptor expressed in GH4C1 cells (human) (UniProt P36544). In words: radioligand binding.
The target in experiment [3] is T1, acetylcholine binding protein from Lymnaea stagnalis (Lymnaea stagnalis, UniProt P58154 20-229).
T1 construct: also called AChBP; L. stagnalis AChBP
T1 sequence (P58154 20-229): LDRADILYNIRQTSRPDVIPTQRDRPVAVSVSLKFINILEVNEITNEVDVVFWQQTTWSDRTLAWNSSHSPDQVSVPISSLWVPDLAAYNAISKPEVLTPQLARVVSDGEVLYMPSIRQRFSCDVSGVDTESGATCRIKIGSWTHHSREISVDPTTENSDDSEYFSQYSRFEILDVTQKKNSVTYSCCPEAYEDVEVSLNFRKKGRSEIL
Nature of the experiment: radioligand binding. To be noted: both partners purified.

In experiment [4] the target is T1, acetylcholine binding protein from …. In words: radioligand binding. The note with it: both partners purified. This is another data set of the same source.
For experiment [5] the target is unchanged. Nature of the experiment: MST. To be noted: both partners purified.
The target is the same in experiment [6]. Nature of the experiment: other fluorescence titration. To be noted: both partners purified.

muscle-type nicotinic acetylcholine receptor from Torpedo californica electric organ (Torpedo californica (endogenous in electric organ)), sequence (P02710 25-461 limits assumed, chain 1 of 4): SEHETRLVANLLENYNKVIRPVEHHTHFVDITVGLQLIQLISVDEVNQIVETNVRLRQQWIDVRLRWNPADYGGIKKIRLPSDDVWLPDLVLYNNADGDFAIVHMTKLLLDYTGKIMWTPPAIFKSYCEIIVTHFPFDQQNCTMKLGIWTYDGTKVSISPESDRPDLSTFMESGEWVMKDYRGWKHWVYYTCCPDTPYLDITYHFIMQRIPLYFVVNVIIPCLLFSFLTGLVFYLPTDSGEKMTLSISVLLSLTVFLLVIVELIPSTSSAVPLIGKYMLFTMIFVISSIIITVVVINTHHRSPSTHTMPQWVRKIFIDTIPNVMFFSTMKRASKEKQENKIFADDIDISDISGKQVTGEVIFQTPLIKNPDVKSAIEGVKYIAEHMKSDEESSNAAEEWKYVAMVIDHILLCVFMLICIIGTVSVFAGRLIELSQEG
muscle-type nicotinic acetylcholine receptor from Torpedo californica electric organ (Torpedo californica (endogenous in electric organ)), sequence (P02712 25-493 limits assumed, chain 2 of 4, further chain): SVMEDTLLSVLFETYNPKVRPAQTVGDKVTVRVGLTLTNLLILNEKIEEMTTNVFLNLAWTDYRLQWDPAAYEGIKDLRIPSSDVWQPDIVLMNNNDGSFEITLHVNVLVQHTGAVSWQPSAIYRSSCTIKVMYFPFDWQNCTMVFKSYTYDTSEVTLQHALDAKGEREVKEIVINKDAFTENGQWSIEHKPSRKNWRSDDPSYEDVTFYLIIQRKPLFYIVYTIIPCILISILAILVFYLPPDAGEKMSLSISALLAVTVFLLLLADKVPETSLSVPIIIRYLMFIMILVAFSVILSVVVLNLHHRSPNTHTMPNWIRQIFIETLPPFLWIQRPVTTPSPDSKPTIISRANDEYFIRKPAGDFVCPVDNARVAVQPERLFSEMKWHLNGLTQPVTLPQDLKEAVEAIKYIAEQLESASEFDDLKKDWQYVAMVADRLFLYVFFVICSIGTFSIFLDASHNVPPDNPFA
muscle-type nicotinic acetylcholine receptor from Torpedo californica electric organ (Torpedo californica (endogenous in electric organ)), sequence (P02714 18-506 limits assumed, chain 3 of 4, further chain): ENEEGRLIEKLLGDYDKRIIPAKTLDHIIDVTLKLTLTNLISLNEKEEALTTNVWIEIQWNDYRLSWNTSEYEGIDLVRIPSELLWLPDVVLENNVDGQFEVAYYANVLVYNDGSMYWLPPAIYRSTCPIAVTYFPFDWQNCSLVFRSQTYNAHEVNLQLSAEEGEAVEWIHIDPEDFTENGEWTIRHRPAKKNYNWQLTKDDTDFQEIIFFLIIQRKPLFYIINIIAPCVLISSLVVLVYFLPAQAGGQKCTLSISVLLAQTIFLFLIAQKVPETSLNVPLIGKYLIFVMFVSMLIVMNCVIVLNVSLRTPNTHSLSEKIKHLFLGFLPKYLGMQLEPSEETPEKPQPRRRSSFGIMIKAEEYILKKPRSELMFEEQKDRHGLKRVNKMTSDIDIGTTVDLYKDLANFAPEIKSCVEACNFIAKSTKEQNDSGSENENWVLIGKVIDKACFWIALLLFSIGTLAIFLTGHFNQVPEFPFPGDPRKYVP
muscle-type nicotinic acetylcholine receptor from Torpedo californica electric organ (Torpedo californica (endogenous in electric organ)), sequence (P02718 22-522 limits assumed, chain 4 of 4, further chain): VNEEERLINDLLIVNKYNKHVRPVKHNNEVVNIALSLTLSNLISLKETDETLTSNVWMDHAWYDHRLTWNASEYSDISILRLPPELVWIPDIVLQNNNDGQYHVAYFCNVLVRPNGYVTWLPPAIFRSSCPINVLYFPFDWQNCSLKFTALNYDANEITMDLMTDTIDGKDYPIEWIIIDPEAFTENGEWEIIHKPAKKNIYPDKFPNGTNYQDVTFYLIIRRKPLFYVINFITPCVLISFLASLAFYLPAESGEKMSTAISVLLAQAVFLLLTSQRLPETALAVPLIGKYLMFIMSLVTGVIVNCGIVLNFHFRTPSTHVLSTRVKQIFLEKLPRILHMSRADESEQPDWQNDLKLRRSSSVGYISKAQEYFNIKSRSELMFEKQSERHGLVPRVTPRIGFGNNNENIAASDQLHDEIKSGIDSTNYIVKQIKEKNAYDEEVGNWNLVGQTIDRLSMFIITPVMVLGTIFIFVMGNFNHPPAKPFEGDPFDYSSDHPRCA
neuronal human α7 nicotinic acetylcholine receptor expressed in GH4C1 cells (human), sequence (P36544 23-502): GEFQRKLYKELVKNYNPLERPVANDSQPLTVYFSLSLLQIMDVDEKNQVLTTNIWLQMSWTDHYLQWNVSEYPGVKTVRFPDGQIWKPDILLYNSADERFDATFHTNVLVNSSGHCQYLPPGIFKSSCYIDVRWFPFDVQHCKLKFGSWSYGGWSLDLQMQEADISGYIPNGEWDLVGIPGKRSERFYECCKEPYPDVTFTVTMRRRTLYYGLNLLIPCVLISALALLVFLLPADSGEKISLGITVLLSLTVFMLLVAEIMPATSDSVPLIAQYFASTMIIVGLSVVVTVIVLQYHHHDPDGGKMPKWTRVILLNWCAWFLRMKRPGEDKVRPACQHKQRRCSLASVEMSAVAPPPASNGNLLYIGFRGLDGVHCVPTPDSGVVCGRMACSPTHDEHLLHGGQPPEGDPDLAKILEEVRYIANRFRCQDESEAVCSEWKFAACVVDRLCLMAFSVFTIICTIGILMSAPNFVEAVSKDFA

Consider “HOBDI-BF2–Aze (fraction 4, label at Lys6) (peptide)”, for which the IC50 in experiment [1] came out at 0.172 µM. For “α-cobratoxin (from UniProt P01391 1-71) (natural protein)”, the results for the IC50 in experiment [1] and in experiment [2] were 0.00057 µM and 0.0054 µM, respectively. Take “HOBDI-BF2–α-CbTx (from UniProt P01391 1-71) (natural protein)”: the values for the IC50 in experiment [1] and in experiment [2] were 0.00388 µM and 0.027 µM, respectively.

B1: ^125I-α-bungarotoxin (natural protein)
chain: IVCHTTATSPISAVTCPPGENLCYRKMWCDAFCSSRGKVVELGCAATCPSKKPYEEVTCCSTDKCNPHPKQRPG
In the case of B1, the binding result in experiment [3] is “binds”. Consider DNWWPKPPHQGPRPPRPRPKP-NH2 (also: one p-HOBDI-BF2 label, position not given here) [Fraction 5 of p-HOBDI-BF2-modified azemiopsin (mono-modified product)], for which the IC50 in experiment [1] is 0.128 µM.

B2: α-cobratoxin (natural protein)
chain: IRCFITPDITSKDCPNGHVCYTKTWCDAFCSIRGKRVDLGCAATCPTVKTGVDIQCCSTDNCNPFPTRKRP
Regarding B2, the IC50 in experiment [4] is 0.028 µM.

B3: HOBDI-BF2–α-CbTx (natural protein)
chain: IRCFITPDITSKDCPNGHVCYTKTWCDAFCSIRGKRVDLGCAATCPTVKTGVDIQCCSTDNCNPFPTRKRP
For B3, in experiment [4], the IC50 came to 0.067 µM. The Kd in experiment [5] was 0.194 ± 0.089 µM; in experiment [6] it was approximately 0.2 µM. In experiment [1], DNWWPKPPHQGPRPPRPRPKP-NH2 [azemiopsin] registered an IC50 of 0.0073 µM. In other words, the single-digit nanomolar range.

Molecule DNWWPKPPHQGPRPPRPRPKP-NH2 (also: one p-HOBDI-BF2 label, position not given here) displayed an IC50 in experiment [1] of 0.21 µM. Compared with the last molecule, the IC50 is about 29-fold higher.

For orientation: IC50 means the concentration that gives 50% inhibition. Broadly, the Kd is the concentration at which binding is half-saturated.
